The results in this text go back to paper PMC8228355, “SERS-Based Aptasensor for Rapid Quantitative Detection of SARS-CoV-2”.

In this data set the target is RBD of SARS-CoV-2 spike protein (SARS-CoV-2, UniProt P0DTC2 319-541). Kind of data set: BLI; ka ([…]; kd ([…]; RBD 80-1200 nM; […]; BLI on streptavidin sensors, buffer and temperature not stated; […]. As to conditions: protein: commercial; label: 5'-biotin.

A word on the Kd: it is a measure of binding affinity in units of concentration. Read a high Kd as a looser complex.

B1: Biotin-RBD-1C (structured_DNA)
DNA: CAGCACCGACCTTGTGCTTTGGGAGTGCTGGTCCAAGGGCGTTAATGGACA
Regarding B1, the Kd was found to be 13 nM. Next, TTTGGGAGTGCTGGTCCAAGGGCGTTAATGGACA (structured_DNA) [Biotin-RBD-1C-sh]: 330 nM.
